Test results reported in PMC4222275, “Biochemical and functional characterization of SpdA, a 2′, 3′cyclic nucleotide phosphodiesterase from Sinorhizobium meliloti” (BMC Microbiology, 2013).

Substrate: Nc1ncnc2c1ncn2[C@@H]1O[C@H](CO)[C@H]2OP(=O)(O)O[C@H]21
Assay: phosphate release with calf intestine phosphatase, Biomol Green
Type: biochemical, Sinorhizobium meliloti
Details: 50 mM Tris-HCl pH 8, 5 mM beta-mercaptoethanol, 10 mM NaCl, 25 °C, 1 μM SpdA

B1: SpdA (Sinorhizobium meliloti 1021) (protein)
chain: MTKLIIFSDLHMVPEGETIIGLDPYRRLANGIAHVNRYHADADRVIFAGDLTHRADRASYERLKALLGELTPPAALMIGNHDRRDVFLDVFAEATTDANGFVQQVLDFADCRAILLDTLFAPPYDYPVSHAGHLCDRRLAWLDRQLEEAGGRPALIFMHHPPHISGFAGIDMIRLVNEDDFYALVKRHGNVRHIFAGHVHRTISGSSRGIPFSIFKSPVHQQPMPFDTADASLSVDEPAAYGIALVTGDGVLVHTEDYEIARRDAVGA
notes: C-terminal His6 tag (pET-22b, NdeI-HindIII), tag kept, E. coli BL21(DE3), monomer, metal-free
Km: 3.7 mM
kcat: 2 s⁻¹
